Molecular target: HAdV-D26 fiber-knob protein (human adenovirus D serotype 26 (HAdV-D26))
Test: crystal structure

HAdV-D26 fiber-knob protein (domain or fragment)
stoichiometry N: 3
